In patent US20250320312A1 (OXITOPE PHARMA B V, published 2025):
Substitutions are numbered along the chain they refer to. Blank lines part the entries; values can stand above or below the binder they belong to.

Legend:
Test in all cases: scFv ELISA
BSA = BSA (UniProt P02769)
[1] = target: Peptide 5: Biotin-…-[Tyr(PC)]-acid
[2] = target: Peptide 1: Biotin-…-[Tyr(PC)]-acid
[3] = target: T1, Peptide 8: Biotin-AEAAAKEAAAKEAAAKEAAAKAAA-Tyr-acid (N-terminal biotin; C-terminal acid; no PC)
T1 construct: control peptide without PC
T1 peptide: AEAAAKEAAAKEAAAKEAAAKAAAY
In short: (§1)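 Bound scFv was read as OD450 after HRP–anti-V5 detection, TMB development and HCl stop. PPE with BSA was incubated 1 h at RT on BSA-blocked wells coated overnight at 4° C. with peptide, or on streptavidin wells loaded 1 h with biotinylated PC-peptides at 1 μg/mL.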

[4] = target: T2, Peptide 4: Biotin-AGGGGSGGGGSGGGGSAAA-Tyr-acid (N-terminal biotin; C-terminal acid; no PC)
T2 construct: control peptide without PC
T2 peptide: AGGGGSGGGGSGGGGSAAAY
In short: as §1

Sequence of BSA (P02769 25-607 limits assumed): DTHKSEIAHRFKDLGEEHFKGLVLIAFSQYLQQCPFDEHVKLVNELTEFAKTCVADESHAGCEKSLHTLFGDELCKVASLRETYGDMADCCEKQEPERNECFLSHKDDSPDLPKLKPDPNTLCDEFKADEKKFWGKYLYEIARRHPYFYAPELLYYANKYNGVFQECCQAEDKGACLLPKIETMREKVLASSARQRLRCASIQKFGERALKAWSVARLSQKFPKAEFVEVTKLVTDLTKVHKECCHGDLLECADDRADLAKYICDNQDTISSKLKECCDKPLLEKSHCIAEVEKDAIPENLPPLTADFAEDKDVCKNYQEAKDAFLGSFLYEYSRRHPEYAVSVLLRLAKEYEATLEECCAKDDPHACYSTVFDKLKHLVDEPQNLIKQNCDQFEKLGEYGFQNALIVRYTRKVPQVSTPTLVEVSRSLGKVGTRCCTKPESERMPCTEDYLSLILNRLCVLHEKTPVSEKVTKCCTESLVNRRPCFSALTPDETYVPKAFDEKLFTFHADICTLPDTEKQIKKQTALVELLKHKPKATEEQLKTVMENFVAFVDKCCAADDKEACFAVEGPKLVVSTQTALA

- OD450 (BSA): 0.06 OD450
- OD450 [1]: 1.48 OD450
- OD450 [2]: 0.85 OD450
- OD450 [3]: 0.05 OD450
- OD450 [4]: 0.05 OD450
B2: PcOxP_DB01_D12 (scFv, V domains shown)
VH: EVQLLESGGGLVQPGGSLRLSCAASGFTFSDYYMEWVRQAPGKGLEWVAASRNKYNDYTTEYADSVKGRFTISRDNSKNTLYLQMNSLRAEDTAVYYCARDYYGSSYWYFDVWGQGTLVTVSS
VL: DIVMTQSPDSLAVSLGERATINCTASESLYSSKHKVHYLAWYQQKPGQPPKLLIYGASNRYIGVPDRFSGSGSGTDFTLTISSLQAEDVAVYYCAQFYSYPLTFGGGTKVEIK
notes: scFv in periplasmic extract

- OD450 (BSA): 0.09 OD450
- OD450 [1]: 1.42 OD450
- OD450 [2]: 0.85 OD450
- OD450 [3]: 0.06 OD450
- OD450 [4]: 0.07 OD450
B3: PcOxP_DB04_H08 (scFv, V domains shown)
VH: B2 VH with Y32G, Y55A
VL: DIQMTQSPSSLSASVGDRVTITCTASESLYSSKHKVHYLAWYQQKPGKAPKLLIYGASNLYSGVPSRFSGSGSGTDFTLTISSLQPEDFATYYCAQFYSYPLTFGGGTKVEIK
notes: scFv in periplasmic extract

- OD450 (BSA): 0.08 OD450
- OD450 [1]: 1.54 OD450
- OD450 [2]: 0.86 OD450
- OD450 [3]: 0.05 OD450
- OD450 [4]: 0.05 OD450
B4: PcOxP_DB01_E03 (scFv, V domains shown)
VH: B2 VH with T28G, Y32F, A49G, Y55H
VL: B2 VL with T24K, A25S, L29V, V36K
notes: scFv in periplasmic extract

- OD450 (BSA): 0.05 OD450
- OD450 [1]: 1.48 OD450
- OD450 [2]: 0.75 OD450
- OD450 [3]: 0.04 OD450
- OD450 [4]: 0.05 OD450
B6: PcOxP_DB01_E01 (scFv, V domains shown)
VH: B2 VH with F29S, Y32F, Y55A
VL: B2 VL with Y61V, Q96N
notes: scFv in periplasmic extract

- OD450 (BSA): 0.1 OD450
- OD450 [1]: 1.01 OD450
- OD450 [2]: 0.54 OD450
- OD450 [3]: 0.07 OD450
- OD450 [4]: 0.08 OD450
B8: PcOxP_DB04_H10 (scFv, V domains shown)
VH: B2 VH with F27A, Y32F, M34V, Y55A
VL: B3 VL with A57P, L60R, S62I
notes: scFv in periplasmic extract

- OD450 (BSA): 0.09 OD450
- OD450 [1]: 1.02 OD450
- OD450 [2]: 0.58 OD450
- OD450 [3]: 0.05 OD450
- OD450 [4]: 0.06 OD450
B11: PcOxP_DB04_H07 (scFv, V domains shown)
VH: B2 VH with S30E, Y32F, Y55A
VL: B3 VL with L60R, Y61V, S62I
notes: scFv in periplasmic extract

Further lines, the binder ahead of its results:

B1: PcOxP_DB01_D10 (scFv, V domains shown)
VH: B2 VH with F29D, Y32F, Y55A
VL: B2 VL
notes: scFv in periplasmic extract
- OD450 (BSA): 0.06 OD450
- OD450 [1]: 0.44 OD450
- OD450 [2]: 0.15 OD450
- OD450 [3]: 0.04 OD450
- OD450 [4]: 0.05 OD450

B5: PcOxP_DB01_D06 (scFv, V domains shown)
VH: B2 VH with Y32F, Y55A, V112S
VL: B2 VL with S99I
notes: scFv in periplasmic extract
- OD450 (BSA): 0.06 OD450
- OD450 [1]: 0.69 OD450
- OD450 [2]: 0.41 OD450
- OD450 [3]: 0.04 OD450
- OD450 [4]: 0.04 OD450

B7: PcOxP_DB01_B03 (scFv, V domains shown)
VH: B2 VH with D31S, Y55A
VL: B2 VL
notes: scFv in periplasmic extract
- OD450 (BSA): 0.08 OD450
- OD450 [1]: 1.25 OD450
- OD450 [2]: 0.82 OD450
- OD450 [3]: 0.05 OD450
- OD450 [4]: 0.05 OD450

B9: PcOxP_DB01_B10 (scFv, V domains shown)
VH: B2 VH with Y32F, Y55A, E61T, Y107H
VL: B2 VL with H34G, A95V
notes: scFv in periplasmic extract
- OD450 (BSA): 0.08 OD450
- OD450 [1]: 1.11 OD450
- OD450 [2]: 0.52 OD450
- OD450 [3]: 0.04 OD450
- OD450 [4]: 0.05 OD450

B10: PcOxP_DB01_D07 (scFv, V domains shown)
VH: B2 VH with Y55A, S105D
VL: B2 VL with T24K, E27Q, L29V, Y30L, H34N, K35N, H37N, I62S
notes: scFv in periplasmic extract
- OD450 (BSA): 0.05 OD450
- OD450 [1]: 0.6 OD450
- OD450 [2]: 0.14 OD450
- OD450 [3]: 0.04 OD450
- OD450 [4]: 0.04 OD450

B12: PcOxP_DB01_B06 (scFv, V domains shown)
VH: B2 VH with D31S, Y107T
VL: B2 VL
notes: scFv in periplasmic extract
- OD450 (BSA): 0.08 OD450
- OD450 [1]: 1.45 OD450
- OD450 [2]: 0.79 OD450
- OD450 [3]: 0.05 OD450
- OD450 [4]: 0.05 OD450

B13: PcOxP_DB01_C10 (scFv, V domains shown)
VH: B2 VH with Y32F, Y55A
VL: B2 VL with A25S, E27Q, Y30L, K33S, K35N, V36K, H37N
notes: scFv in periplasmic extract
- OD450 (BSA): 0.07 OD450
- OD450 [1]: 0.53 OD450
- OD450 [2]: 0.13 OD450
- OD450 [3]: 0.04 OD450
- OD450 [4]: 0.04 OD450

B14: PcOxP_DB01_D01 (scFv, V domains shown)
VH: B2 VH with D31S, Y55A
VL: B2 VL with S32P, S99I
notes: scFv in periplasmic extract
- OD450 (BSA): 0.06 OD450
- OD450 [1]: 1.12 OD450
- OD450 [2]: 0.85 OD450
- OD450 [3]: 0.04 OD450
- OD450 [4]: 0.05 OD450

B15: PcOxP_DB01_C09 (scFv, V domains shown)
VH: B2 VH with Y32F, Y55A
VL: B2 VL with E27Q, L29V, H34N
notes: scFv in periplasmic extract
- OD450 (BSA): 0.07 OD450
- OD450 [1]: 0.94 OD450
- OD450 [2]: 0.27 OD450
- OD450 [3]: 0.05 OD450
- OD450 [4]: 0.05 OD450
